Target: the molecule itself
Experiment: cryo-EM structure

B1: Streptomyces coelicolor bacterioferritin (natural protein, UniProt Q9S2N0 1-167, looked up)
chain: MQGDPEVIEFLNEQLTAELTAINQYFLHAKLQDHKGWTKLAKYTRAESFDEMRHAEVLTDRILLLDGLPNYQRLFHVRVGQSVTEMFQADREVELEAIDRLRRGIEVMRAKHDITSANVFEAILADEEHHIDYLETQLDLIEKLGESLYLSTVIEQTQPDPSGPGSL
Question: For B1, which “stoichiometry N” value is on record?
Answer: 24

Reference: paper doi:10.1101/2021.02.04.429857 (bioRxiv, 2021)
